Target: NSP12 (RNA-dependent RNA polymerase) (SARS-CoV-2, UniProt P0DTD1 4393-5324)
Assay: filter binding; 20 mM Tris, 200 mM KCl, room temperature, 1 h; pH not stated; […]
Conditions: protein: commercial; tags: His; label: 3' biotin; stem loops

B1: Scov2_7431_7555_RNA (structured_RNA)
RNA: GGGCGAAAACGCCCCAUUUUAUUAUGUAUGGAAAAGUUAUGUGCAUGUUGUAGACGGUUGUAAUUCAUCAACUUGUAUGAUGUGUUACAAACGUAAUAGAGCAACAAGAGUCGAAUGUACAACUAUUGUUAAUGGUGUU
modifications: 3' biotinylation (Pierce RNA 3' End Biotinylation Kit)
B1 gave a Kd of 17 nM.
